Measurements: publication PMC6368601

Target: taxol-stabilized microtubules polymerized from bovine brain tubulin dimers (bovine) (UniProt Q6B856)
Assay: co-sedimentation; 100 nM ISB (WT, MTBM or Δ20) with various concentrations of taxol-stabilized microtubules; BRB80, 1 mM DTT, 50 mM NaCl, 20 uM paclitaxel; 15 min at room temperature; 50% glycerol cushion, 279,000 x g; blot with anti-Borealin; apparent Kd from a one-site specific binding fit of three experiments

ISB^MTBM: INCENP^1-58-Survivin-Borealin(R17E, R19E, K20E) complex (from UniProt Q9NQS7 1-58; O15392 1-142; Q53HL2 1-280)
Kd: 4.2 µM
